Data as given in US20100279937A1, “Method of Inhibiting Angiogenesis, Tumorigenesis and Cathepsin Activity” (priority 2006, published 2010).

B1: CIBP1: IGFBP-1 C-terminal domain (aa 170-259, SEQ ID No. 2) with octahistidine tag (protein)
chain: MGELLLLLLLGLRLQLSLGIASKKWKEPCRIELYRVVESLAKAQETSGEEISKFYLPNCNKNGFYHSRQCETSMDGEAGLCWCVYPWNGKRIPGSPEIRGDPNCQIYFNVQASSGSSTGHHHHHHHHG
modifications: octahistidine tag; C-terminal fragment of IGFBP-1
B2: CIBP6: IGFBP-6 C-terminal fragment (aas 151-240, SEQ ID No. 10) with octahistidine tag (protein)
chain: MGELLLLLLLGLRLQLSLGIARNSAGVQDTEMGPCRRHLDSVLQQLQTEVYRGAQTLYVPNCDHRGFYRKRQCRSSQGQRRGPCWCVDRMGKSLPGSPDGNGSSSCPTGSSGSSTGHHHHHHHHG
modifications: octahistidine tag; C-terminal fragment of IGFBP-6

Tested on: U87MG cells
Assay: U87MG growth in semi-solid (soft) agar
Type: cell-based, human
Settings: Alamar Blue
Experimental: […] Approximately 15,000 cells±treatment were resuspended in 150 μl medium containing 0.3% agar, and seeded onto a well of a 24-well plate previously layered with 250 μl 0.6% agar. The solidified cell layer was covered with 50 μl DME±treatment which was replaced every three days over a 21 day period. Phase contrast images (6 fields/well) were captured using a digital video camera (Olympus U-CMT) and analyzed with Northern Eclipse v.5.0 software. Color images were transformed to grey scale, thresholded, and then converted to binary images. Number and area of colonies per field were calculated. In order to measure cell viability, at the end of the experiment, 40 μl alamar blue was added to each well and fluorescence readings were performed every 10 min for a period of 180 min. Experiments were repeated 2-3 times in triplicates.

| Molecule | inhibition of U87MG colony formation in soft agar (efficacy) (500 μg/ml dB-cAMP, positive control) | inhibition of U87MG colony formation in soft agar (efficacy) (20 nM) |
| --- | --- | --- |
| CCCC(=O)Nc1ncnc2c1ncn2[C@@H]1O[C@@H]2COP(=O)(O)O[C@H]2[C@H]1OC(=O)CCC [dB-cAMP, dybutyril cAMP, reference compound] | ~65% |  |
| B1 |  | ~25% |
| B2 |  | ~25% |
